Reference: patent US20230126400A1 (Alector, published 2023)

Tests used:
[1] = target: T1, human MS4A6A ECL1 peptide (amino acid residues 68-85) (human); experiment: array SPR
T1 peptide: SASFSPNFTQVTSTLLNS

[2] = target: T2, human MS4A6A ECL2 peptide (amino acid residues 138-185) (human); experiment: array SPR
T2 peptide: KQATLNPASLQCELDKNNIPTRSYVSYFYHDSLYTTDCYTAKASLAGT

[3] = target: T3, human MS4A4A ECL1 peptide (amino acid residues 86-98) (human); experiment: array SPR
T3 construct: synthetic peptide
T3 peptide: CMASNTYGSNPIS

cynomolgus (cyno) MS4A4A [4] = target: T4, cynomolgus (cyno) MS4A4A (cynomolgus); experiment: flow cytometry (anti-mouse IgG Fc-APC), hybridoma supernatant on 300.19 cells transfected with cyno MS4A4A
T4 construct: also called cy4A; Cyno 4A
Experimental: (§1) Flow cytometry was performed as follows. Briefly, transiently-transfected cells were labeled with LIVE/DEAD Fixable Aqua Dead Cell Stain Kit (ThermoFisher Scientific Cat#L34957) on ice for 30 minutes. […] 2×10⁵ cells were aliquoted per well in 96-well U-bottom plates and incubated with 50 μl of culture supernatant on ice for 30 minutes. […] Following this secondary incubation, the cells were again washed twice with ice-cold FACS buffer and resuspended in a final volume of 200 μl of FACS buffer. Analysis was performed on a FACS Canto system (BD Biosciences), with gates drawn to exclude dead (Aqua-positive) cells.

[5] = target: T5, BSA-conjugated human MS4A4A ECL2 peptide (amino acid residues 159-179) (human, conjugated to BSA (site not stated)); experiment: ELISA, supernatant
T5 construct: also called MS4A4A-ECL2 BSA conjugated peptide; BSA-MS4A4A-ELC2 peptide
T5 peptide: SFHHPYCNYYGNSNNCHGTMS

cynomolgus (cyno) MS4A4A [6] = target: T4, cynomolgus (cyno) MS4A4A; experiment: FACS, HEK293, supernatant
human MS4A4A [7] = target: T6, human MS4A4A (human, UniProt Q96JQ5 1-239); experiment: FACS, HEK293, supernatant
[8] = target: T5, BSA-conjugated human MS4A4A ECL2 …; experiment: ELISA, hybridoma supernatant
cynomolgus (cyno) MS4A4A [9] = target: T4, cynomolgus (cyno) MS4A4A; experiment: FACS, stably transfected cells
[10] = target: T3, human MS4A4A ECL1 peptide (amino acid …); experiment: peptide ELISA
Summary of the method: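 Free or BSA-conjugated peptides were coated at 2 or 10 […] in 0.05M carbonate buffer, pH 9.6, overnight at 4 °C, then blocked 1 h with PBS+0.5% BSA+0.05% Tween20. Antibodies were bound 30 min at room temperature with shaking. TMB was developed 5-10 min, stopped, and absorbance read at 650 nm.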

human MS4A4A [11] = target: T6, human MS4A4A; experiment: FACS, K562 cells, supernatant; K562 cells overexpressing h4A
Experimental: as §1, with “Positive clones identified in Example 22 above were expanded and then rescreened for specificity against U937, K562, and/or 300.19 cells stably overexpressing human MS4A4A or cyno MS4A4A and parental U937, K562, and/or 300.19 cells. These experiments were” for “Flow cytometry was”, “using supernatants from hybridoma clones which had undergone further expansion after initial selection.” for “as follows.”, “stably transfected” for “transiently-transfected”
(§2) The APC ratio was calculated for each antibody as follows. […] For cell lines overexpressing human MS4A4A (h4A) or cyno MS4A4A (cy4A), the ration was calculated by comparing the binding measured to the binding observed on the corresponding parental cell lines.

human MS4A4A [12] = target: T6, human MS4A4A; experiment: FACS, U937 cells, supernatant; U937 cells overexpressing h4A
Experimental: as §1, with “Positive clones identified in Example 22 above were expanded and then rescreened for specificity against U937, K562, and/or 300.19 cells stably overexpressing human MS4A4A or cyno MS4A4A and parental U937, K562, and/or 300.19 cells. These experiments were” for “Flow cytometry was”, “using supernatants from hybridoma clones which had undergone further expansion after initial selection.” for “as follows.”, “stably transfected” for “transiently-transfected”
as §2

[13] = target: T7, human MS4A4A ECL2 peptide (amino acid residues 159-179), free (human); experiment: peptide ELISA, supernatant
T7 construct: synthetic peptide; also called huMS4A4A-ELC2 free-peptide
T7 peptide: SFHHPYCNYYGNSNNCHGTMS

human MS4A4A [14] = target: T6, human MS4A4A; experiment: FACS, 300.19 cells, supernatant
Experimental: as §1, with “Positive clones identified in Example 22 above were expanded and then rescreened for specificity against U937, K562, and/or 300.19 cells stably overexpressing human MS4A4A or cyno MS4A4A and parental U937, K562, and/or 300.19 cells. These experiments were” for “Flow cytometry was”, “using supernatants from hybridoma clones which had undergone further expansion after initial selection.” for “as follows.”, “stably transfected” for “transiently-transfected”
as §2

human MS4A4A [15] = target: T6, human MS4A4A; experiment: FACS, U937 cells, supernatant
Experimental: as §1, with “Positive clones identified in Example 22 above were expanded and then rescreened for specificity against U937, K562, and/or 300.19 cells stably overexpressing human MS4A4A or cyno MS4A4A and parental U937, K562, and/or 300.19 cells. These experiments were” for “Flow cytometry was”, “using supernatants from hybridoma clones which had undergone further expansion after initial selection.” for “as follows.”, “stably transfected” for “transiently-transfected”
as §2

human MS4A4A [16] = target: T6, human MS4A4A; experiment: FACS, K562 cells, supernatant
Experimental: as §1, with “Positive clones identified in Example 22 above were expanded and then rescreened for specificity against U937, K562, and/or 300.19 cells stably overexpressing human MS4A4A or cyno MS4A4A and parental U937, K562, and/or 300.19 cells. These experiments were” for “Flow cytometry was”, “using supernatants from hybridoma clones which had undergone further expansion after initial selection.” for “as follows.”, “stably transfected” for “transiently-transfected”
as §2

[17] = target: T7, human MS4A4A ECL2 peptide (amino acid …); experiment: peptide ELISA
cynomolgus (cyno) MS4A4A [18] = target: T4, cynomolgus (cyno) MS4A4A; experiment: FACS, 300.19 cells, supernatant
Experimental: as §1, with “Positive clones identified in Example 22 above were expanded and then rescreened for specificity against U937, K562, and/or 300.19 cells stably overexpressing human MS4A4A or cyno MS4A4A and parental U937, K562, and/or 300.19 cells. These experiments were” for “Flow cytometry was”, “using supernatants from hybridoma clones which had undergone further expansion after initial selection.” for “as follows.”, “stably transfected” for “transiently-transfected”
as §2

B1: anti-MS4A4A antibody 4A-23 (antibody, V domains shown)
VH: EVQLQQSGPELVKPGASVKMSCQASGYTFTDYNIHWVKQSHGKSLKWIGYINPNNDDTTFNQKFKGKATLTVNKSSSTAYMELRSLTSEDSAVYYCARSPYCYFDVWGTGTTVTVSS
VL: DIQMTQSPSSLSASLGGKVTITCKASQDINKYIVWYQHKPGKGPRLLINYTSTLQPGIPSRFSGGGSGGDYSFSISNLEPEDIATYYCLQYDNLWTFGGGTKLEIK
notes: murine hybridoma antibody
binding result [1]: no binding (tested: 2000 nM) | binding result [2]: no binding (tested: 2000 nM) | binding result [3]: no binding (tested: 2000 nM) | binding result (cynomolgus (cyno) MS4A4A [4]): no binding | binding result [5]: binds | Cyno 4A:parental cell ratio (cynomolgus (cyno) MS4A4A [6]): 1.22 ratio | Human 4A:parental cell ratio (human MS4A4A [7]): 1.96 ratio

B2: anti-MS4A4A antibody 4A-24 (antibody, V domains shown)
VH: EVKLEESGGGLVQPGGSMKLSCAASGFTFSDAWMDWVRQSPEKGLEWVAEIRDNADNHPTYYAESVKGRFTISRDDSKSSVYLQMNSLRAEDTGIYYCTSDYYGSHWGQGTTLTVSS
VL: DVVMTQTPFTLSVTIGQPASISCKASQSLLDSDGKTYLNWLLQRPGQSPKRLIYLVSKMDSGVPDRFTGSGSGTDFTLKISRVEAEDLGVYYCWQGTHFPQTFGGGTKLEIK
notes: murine hybridoma antibody
binding result [1]: no binding (tested: 2000 nM) | binding result [2]: no binding (tested: 2000 nM) | binding result [3]: no binding (tested: 2000 nM) | binding result [8]: no binding

B3: anti-MS4A4A antibody 4A-206 (murine) (antibody, V domains shown)
VH: EVKLVESGGGLVKPGGSLKLSCAASGFTFSSYTMSWVRQTPEKRLEWVASLSSGGSTYYPDSVKGRFTISRDNARNILYLQMSSLRSEDTAMYYCAKDYYVSSYRWYFDVWGAGTTVTVSS
VL: DIQMTQITSSLSASLGDRVTISCRASQDISNYLNWYQQKPDGTVKLLIYYTSNLHSGVPSRFSGSGSGTDYSLTISNLEQEDIATYFCQQGKSFPWTFGGGTKLEIK
notes: murine hybridoma antibody
binding result (cynomolgus (cyno) MS4A4A [9]): binds | binding result [10]: no binding | fold increase in MFI (human MS4A4A [11]): > 2 fold | fold increase in MFI (human MS4A4A [12]): > 2 fold | binding result [13]: no binding

B4: anti-MS4A4A antibody 4A-220 (antibody, V domains shown)
VH: EVQLQQSGPDLVKPGASVKISCKASGYSFNGYFMNWVMQSHGESLEWIGRINPYNGDTLYNQKFKGKATLTVDKSSSTGHMELRSLASEDSAVYYCARVKGYDYDGAMDYWGQGTSVTVSS
VL: DIVMTQSPDSLAVSLGERATINCRSSQSLLQSGNQKSSLAWYQQKPGQPPKLLIFWARTRQSGVPDRFSGSGSGTDFTLTISSVQAEDVAVYYCQQYSDTPFTFGQGTKLEIK
notes: murine hybridoma antibody
binding result [10]: no binding | fold increase in MFI (human MS4A4A [14]): > 2 fold | fold increase in MFI (human MS4A4A [15]): > 2 fold | binding result [13]: no binding | fold increase in MFI (human MS4A4A [16]): > 2 fold

B5: anti-MS4A4A antibody 4A-204 (antibody, V domains shown)
VH: DVKLVESGGGLAKLGGSLKLSCAASGFTFSSFYMSWVRQTPEKRLELVAAINSNGGSTYYPDSVKGRFTISRDNVKNTLYLQMSSLKSEDTAMYYCARHLYYGLYYAMDYWGQGTSVTVSS
VL: ENVLTQSPAIMSASPGEKVTMTCSASSSVSFMYWYQEKSSTSPKLWIYDTSKLASGVPGRFSGSGSGNSYSLTISSMGAEDVATYYCFQGSGFPLTFGSGTKLEIK
notes: murine hybridoma antibody
binding result [10]: no binding | fold increase in MFI (human MS4A4A [11]): > 2 fold | fold increase in MFI (human MS4A4A [12]): > 2 fold | binding result [13]: no binding

B6: anti-MS4A4A antibody 4A-214 (antibody, V domains shown)
VH: EVKLEESGGGLVQPGRSMKLSCVASGFTFSNYWMNWVRQSPEKGLEWVAEIRLKSNNYATHYAESVKGRFTISRDDSKSSVYLQMNNLRAEDTGIYYCSSMIIVDYWGQGTTVTVSS
VL: DIVLTQSPASLTVSLGQRATISCRASQSVSSSTYSYLHWYQQRPGQPPKLLIKYASNLESGVPARFSGSGSGTVFTLNIHPVEEEDTATYYCQHSWEIPLTFGAGTKLEMK
notes: murine hybridoma antibody
binding result [17]: binds | binding result [10]: no binding | fold increase in MFI (cynomolgus (cyno) MS4A4A [18]): > 2 fold | fold increase in MFI (human MS4A4A [14]): > 2 fold | fold increase in MFI (human MS4A4A [15]): > 2 fold | fold increase in MFI (human MS4A4A [16]): > 2 fold

B7: anti-MS4A4A antibody 4A-213 (murine) (antibody, V domains shown)
VH: QVQLKESGPGLVAPSQSLSITCTVSGFSLTSYGVHWVRQPPGKGLEWLGVIWVGGSTNYNSALMSRLSISKDNSKSQVFLKMNSLQTDDTAMYYCARAVYYYGSSYYFDYWGQGTTVTVSS
VL: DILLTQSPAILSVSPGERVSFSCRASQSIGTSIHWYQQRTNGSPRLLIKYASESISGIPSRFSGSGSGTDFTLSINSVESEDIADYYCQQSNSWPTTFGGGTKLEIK
notes: murine hybridoma antibody
binding result (cynomolgus (cyno) MS4A4A [9]): binds | binding result [10]: no binding | fold increase in MFI (human MS4A4A [11]): > 2 fold | binding result [13]: no binding
